Consider three substances from publication PMC9993113, “Assay development and inhibition of the Mt-DprE2 essential reductase from Mycobacterium tuberculosis” (Microbiology, 2023).

For series [1], the system named is CC(C)=CCC/C(C)=C/CC/C(C)=C/CC/C(C)=C/COP(=O)(O)O[C@@H]1O[C@H](CO)[C@@H](O)[C@H]1O. Nature of the series: purified protein. The settings on record: FAD.
The next series deals with T1, Mt-DprE1 (Mycobacterium tuberculosis, UniProt P9WJF1).
T1 construct: N-terminal hexa-his tag
The series can be described thus: resazurin-based DprE1 enzyme assay with GGPR substrate. It counts as biochemical.

Series [2] deals with NC(=O)C1=CN([C@@H]2O[C@H](COP(=O)(O)OP(=O)(O)OC[C@H]3O[C@@H](n4cnc5c(N)ncnc54)[C@H](O)[C@@H]3O)[C@@H](O)[C@H]2O)C=CC1. The series can be described thus: purified protein. The settings on record: varied: cofactor.
Series [3] deals with NC(=O)C1=CN([C@@H]2O[C@H](COP(=O)(O)OP(=O)(O)OC[C@H]3O[C@@H](n4cnc5c(N)ncnc54)[C@H](OP(=O)(O)O)[C@@H]3O)[C@@H](O)[C@H]2O)C=CC1. Nature of the series: purified protein. The settings on record: varied: cofactor.

T1 sequence (P9WJF1 whole entry): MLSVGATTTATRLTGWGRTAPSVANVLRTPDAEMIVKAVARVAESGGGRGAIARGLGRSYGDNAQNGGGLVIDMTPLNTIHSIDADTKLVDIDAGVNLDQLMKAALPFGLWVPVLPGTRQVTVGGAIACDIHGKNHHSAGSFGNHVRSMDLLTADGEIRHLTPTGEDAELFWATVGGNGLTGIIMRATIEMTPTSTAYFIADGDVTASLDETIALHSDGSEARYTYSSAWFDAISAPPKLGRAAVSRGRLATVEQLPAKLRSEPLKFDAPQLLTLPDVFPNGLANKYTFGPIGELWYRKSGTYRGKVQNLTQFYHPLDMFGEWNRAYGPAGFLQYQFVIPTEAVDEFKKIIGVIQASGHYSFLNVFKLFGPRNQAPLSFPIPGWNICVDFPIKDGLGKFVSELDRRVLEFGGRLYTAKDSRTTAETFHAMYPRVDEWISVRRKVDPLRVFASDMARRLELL

By Km is commonly meant the substrate concentration at which the rate is half of its maximum. One may read the Vmax as the top rate of the reaction or transport when substrate is in excess. Regarding “Mt-DprE1 (Mycobacterium tuberculosis H37Rv)”, in series [1], the Michaelis-Menten constant (Km) turned out to be 36.9 ± 0.7 µM and the maximum rate (Vmax) was determined as 35.8 µM/min.
As usually defined, the IC50 is the point on the concentration scale where inhibition reaches its midpoint. A lower IC50 goes with inhibition by little substance. On to BTZ, for which the IC50 at Mt-DprE1 is 5.7 ± 0.5 µM.
As for “Mt-DprE2 (Mycobacterium tuberculosis H37Rv)”, in series [2], the Km was 10.5 ± 5.6 µM and the maximal velocity (Vmax) is 14.3 µM/min. In series [3], the Km came out at 34.6 ± 11.2 µM and the Vmax was found to be 11.2 µM/min.
